According to patent US20210277102A1, “COMPOSITIONS AND METHODS FOR TREATING A TUMOR SUPPRESSOR DEFICIENT CANCER” (BETH ISRAEL DEACONESS MEDICAL CENTER, INC., priority 2016, published 2021):

How the values were obtained:
GPR35 [1] = molecular target: T1, GPR35 (Homo sapiens, UniProt Q9HC97); conditions: in vitro; cited from earlier work
Target sequence in this assay (Q9HC97 whole entry): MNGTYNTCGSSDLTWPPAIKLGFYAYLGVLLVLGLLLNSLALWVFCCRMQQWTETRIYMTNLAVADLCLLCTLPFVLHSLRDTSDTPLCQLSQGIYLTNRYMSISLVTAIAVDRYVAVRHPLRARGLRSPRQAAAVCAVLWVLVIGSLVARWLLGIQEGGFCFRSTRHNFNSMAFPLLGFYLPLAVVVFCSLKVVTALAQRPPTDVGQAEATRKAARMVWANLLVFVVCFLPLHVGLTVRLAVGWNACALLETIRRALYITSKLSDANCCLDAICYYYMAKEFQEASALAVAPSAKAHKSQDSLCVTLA

mouse GPR35 = mouse GPR35 (Mus musculus, UniProt Q9ES90); conditions: in vitro; cited from earlier work
prostate cancer = conditions: phase III clinical trial in prostate cancer, unselected patients; cited from earlier work
[2] = system: whole bone marrow (BM) mouse cells and Gr1+ cells isolated from the BM; assay: 4-day culture of bone marrow and Gr1+ cells in GM-CSF, IL-6 medium plus recombinant chemokine (flow analysis, qRT-PCR); format: cell-based; conditions: 4 days culture, GM-CSF and IL-6, recombinant chemokine 200 nM
Source text: (§1) Gr1+ cells and monocytes were isolated from the bone marrow (tibias and femurs) of C57BL/6 wild type, 3 months old mice using the MACS Myltenyi Biotec Cell Isolation system according to the manufacturer's instruction. For monocytes isolation the Monocyte Isolation Kit (BM) (Miltenyi 130-100-629) was used, whereas Gr1 positive cells were isolated using the antibody Anti-Gr-1-Biotin, clone RB6-8C5 (Miltenyi 130-101-894). Red blood cells were lysed with the ACK lysis buffer (ThermoFisher Scientific A1049201). Total bone marrow cells and Gr1+ cells were cultured for 4 days. Briefly, 40 ng/ml GM-CSF (PeproTech #315-03) and 40 ng/ml IL-6 (PeproTech #216-16) were added to the control medium RPMI 1640 (ThermoFisher Scientific 11875-093), supplemented with penicillin-streptomycin, 10% FBS, 10 mM HEPES, 20 μM 2-Mercaptoethanol. Either recombinant mouse CXCL5 (BioLegend #573302) or recombinant mouse CXCL17 (BioLegend #585402) was added at the beginning of the experiment (200 nM). For the migration assay 2.5×10^5 MACS sorted cells were resuspended in 100 μL of either RPMI 1640 control medium or organoid complete medium and placed on the upper well of the transwell system (5 μm, Corning #160241). The migration assay with recombinant proteins was performed by adding to the bottom well 600 μL of RMPI1640 control medium supplemented with the indicated amount of either CXCL5 or CXCL17. The migration assay with organoid conditioned medium was performed by adding to the bottom well 600 μL of medium collected over 5 days of culture of prostate organoids with the indicated genotype. The migration of cells was quantified by flow cytometry, 15 seconds acquisition time, using BD LSR II flow cytometer.
For Flow Cytometry, spleen and lymph node single cell suspensions were prepared by mashing the tissue in 2% FBS/PBS. Tumor and control prostate tissue (from anterior lobes) single cell suspension was prepared by mincing the tumor and digestion with Collagenase Type I (Life Technologies #17018029) in 10% DMEM (GIBCO) for 1 hr at 37° C. Cell suspensions were passed through […] cell strainers to obtain single cell suspensions. Blood samples and single cell suspensions were re-suspended in 1-2 ml of ACK red cell lysis buffer (GIBCO) and lysed on ice for 1 minute. Cell suspensions were then washed in 2% FBS/PBS, centrifuged and re-suspended in 0.5-1 ml of 2% FBS/PBS. For flow cytometry, 100 μl of cell suspension was stained in a 96-well U-bottom plate and the following antibodies were used: CD45.2-Pacific Blue (BioLegend #109820), CD45.2-APC (eBioscience #17-0454-82), CD45.2-FITC (eBioscience #11-0454-85), Gr-1-FITC (eBioscience #11-5931), Gr-1-PE (eBioscience #12-5931-81), CD11b-PECy7 (eBioscience #25-0112), CD11b-FITC (eBioscience #11-0112-82), Ly6C-PE (eBioscience #12-5932-80), Ly6G-APC-Cy7 (BioLegend #127623), Ly6G-APC (BioLegend #127613), CD3-PE (eBioscience #12-0031), CD4-APC (BioLegend #100515), CD4-PE-Cy7 (eBioscience #25-0042-82), CD8-APC (BioLegend #100721), CD8-FITC (eBioscience #11-0081-85), B220-FITC (eBioscience #11-0452), CD19-PerCP-Cy5.5 (eBioscience #45-0193), F4/80-APC (eBioscience #17-4801), CD44-FITC (BD Pharmingen #561859), CD62L-APC (BioLegend #104411), CD206-PE (BioLegend #141705) and CD49f-APC (eBioscience #17-0495). All antibodies were used 1:100. To assess cell viability, cells were incubated with either DAPI or TO-PRO3 prior to FACS analysis. Foxp3 staining was done using FOXP3 Fix/Perm Buffer Set (BioLegend) and cells were stained by Foxp3-FITC antibody (eBioscience #11-5773). All staining mixtures were analyzed on a BD LSR II flow cytometer (Becton Dickinson). Resulting profiles were further processed and analyzed using the FlowJo 8.7 software.
Microarray analysis and gene set enrichment analysis on mouse tumor tissue were conducted and analyzed as previously described by Palucka, A. K. et al. (Palucka, A. K. et al. Cell 164, 1233-1247 (2016)). […]

[3] = system: Gr1+ cells isolated from the bone marrow of healthy mice; assay: Transwell migration assay with recombinant proteins, Gr1+ cells; format: cell-based, mouse; conditions: Gr1+ cells mostly Ly6G+/Ly6C^int PMN cells; increasing concentration of recombinant protein
Source text: as §1, with “The migration assay with recombinant proteins was performed by adding to the bottom well 600 μL of RMPI1640 control medium supplemented with the indicated amount of either CXCL5 or CXCL17. The migration assay with organoid conditioned medium was performed by adding to the bottom well 600 μL of medium collected over 5 days of culture of prostate organoids with the indicated genotype.” left out

[4] = system: monocytes isolated from the bone marrow of healthy mice; assay: Transwell migration assay with recombinant proteins, monocytes; format: cell-based, mouse; conditions: increasing concentration of recombinant protein in bottom well
Source text: as §1, with “The migration assay with recombinant proteins was performed by adding to the bottom well 600 μL of RMPI1640 control medium supplemented with the indicated amount of either CXCL5 or CXCL17. The migration assay with organoid conditioned medium was performed by adding to the bottom well 600 μL of medium collected over 5 days of culture of prostate organoids with the indicated genotype.” left out

GPR35 [5] = molecular target: T1, GPR35; conditions: cited from earlier work
Target sequence in this assay (Q9HC97 whole entry, species assumed): as the sequence (Q9HC97 whole entry) above

mouse GPR35, sequence (Q9ES90 whole entry): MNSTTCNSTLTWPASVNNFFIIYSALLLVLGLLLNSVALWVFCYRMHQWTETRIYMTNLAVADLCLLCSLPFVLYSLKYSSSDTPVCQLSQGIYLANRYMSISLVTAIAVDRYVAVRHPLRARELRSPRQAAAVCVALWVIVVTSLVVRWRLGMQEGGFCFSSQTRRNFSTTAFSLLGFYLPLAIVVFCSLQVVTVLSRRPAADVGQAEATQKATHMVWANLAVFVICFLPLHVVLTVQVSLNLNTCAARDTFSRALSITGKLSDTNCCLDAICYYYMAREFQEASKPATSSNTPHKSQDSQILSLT

For `COC(=O)c1cnn(-c2ccc(F)cc2F)c1/C=N/NC(=S)NC(C)(C)C` [CID2745687], the “antagonist activity at human GPR35” value (GPR35 [1]) is listed as “in vitro antagonist activity” and the “antagonist activity at mouse GPR35” value (mouse GPR35) is listed as “in vitro antagonist activity”.

In the case of `CC(/C=C1\SC(=S)N(CCCC(=O)Nc2ccc(C(=O)O)c(O)c2)C1=O)=C\c1ccccc1` [ML145], the “antagonist activity at mouse GPR35” value (mouse GPR35) is given as “in vitro antagonist activity”.

In the case of `COc1cccc2c1c(O)c(C(=O)N(C)c1ccc(C(F)(F)F)cc1)c(=O)n2C` [Tasquinimod], the survival benefit (prostate cancer) is given as “failed to show a clear survival benefit”.

B1: CXCL17: recombinant mouse CXCL17 (BioLegend #585402); chemokine ligand of GPR35 (protein, UniProt Q5UW37 23-119, looked up)
C-X-C motif chemokine 17: SPNPGVARSHGDQHLAPRRWLLEGGQECECKDWFLQAPKRKATAVLGPPRKQCPCDHVKGREKKNRHQKHHRKSQRPSRACQQFLKRCHLASFALPL
In the case of B1, the “expression of the Ly6C and Ly6G markers (flow analysis)” value (shortened to “expression … (flow analysis)”) [2] is reported as “did not observe any significant difference”, the “expression profile of the genes tested (qRT-PCR)” value [2] is reported as “did not observe any significant difference” and the “expression … (flow analysis)” value ([2]; listed as recombinant CXCL17) is reported as “did not show significant changes”. The “migration of Gr1+ cells toward medium with recombinant protein” value [3] was “only on monocytes”, the “migration of monocytes toward medium with recombinant protein” value [4] was “concentration-dependent effect” and the “concentration range of GPR35-CXCL17 mediated functional responses” value (GPR35 [5]) was roughly 50 nM.

B2: CXCL5: recombinant mouse CXCL5 (BioLegend #573302) (protein, UniProt P50228 41-132, looked up)
C-X-C motif chemokine 5: APSSVIAATELRCVCLTVTPKINPKLIANLEVIPAGPQCPTVEVIAKLKNQKEVCLDPEAPVIKKIIQKILGSDKKKAKRNALAVERTASVQ
In the case of B2, the “expression … (flow analysis)” value [2] is reported as “did not observe any significant difference”, the “expression profile of the genes tested (qRT-PCR)” value [2] is reported as “did not observe any significant difference” and the “expression … (flow analysis)” value ([2]; listed as recombinant CXCL5) is reported as “did not show significant changes”. The “migration of Gr1+ cells toward medium with recombinant protein” value [3] was “chemoattractants for PMN”.
